From PMC11634010

Target: 92BR020 SOSIP gp140 trimer (stabilized pre-fusion HIV-1 envelope glycoprotein, SOSIP v.7) (HIV-1 subtype B strain 92BR020)
Experiment: negative-stain electron microscopy; SOSIP proteins diluted in Tris-buffered saline to ~0.02 mg/mL, adsorbed onto carbon-coated copper grids, stained with 2% uranyl formate; 2D classification compared with published well-folded SOSIP trimers

Substance: 92BR020 SOSIP gp140 trimer (stabilized pre-fusion HIV-1 envelope glycoprotein, SOSIP v.7) (natural protein)
- stoichiometry N: 3
